Patent US20240109962A1 (SPARX BIOSCIENCE, published 2024)
Where a chain is given by its changes, count along the chain named. Read-outs that look alike come from different tables or passages of the source.

Experiments:
[1] = target: T1, human LILRB2 expressed on cells (293T-LILRB2, CHO-K1-LILRB2) (human, UniProt Q8N423 22-597); experiment: flow cytometry, blockade of His-tagged HLA-A2 tetramer binding to 293T-LILRB2 cells
T1 construct: whole, on cells; the cell line is named under assay; also called HEK293T-LILRB2
T1 sequence (Q8N423 22-597): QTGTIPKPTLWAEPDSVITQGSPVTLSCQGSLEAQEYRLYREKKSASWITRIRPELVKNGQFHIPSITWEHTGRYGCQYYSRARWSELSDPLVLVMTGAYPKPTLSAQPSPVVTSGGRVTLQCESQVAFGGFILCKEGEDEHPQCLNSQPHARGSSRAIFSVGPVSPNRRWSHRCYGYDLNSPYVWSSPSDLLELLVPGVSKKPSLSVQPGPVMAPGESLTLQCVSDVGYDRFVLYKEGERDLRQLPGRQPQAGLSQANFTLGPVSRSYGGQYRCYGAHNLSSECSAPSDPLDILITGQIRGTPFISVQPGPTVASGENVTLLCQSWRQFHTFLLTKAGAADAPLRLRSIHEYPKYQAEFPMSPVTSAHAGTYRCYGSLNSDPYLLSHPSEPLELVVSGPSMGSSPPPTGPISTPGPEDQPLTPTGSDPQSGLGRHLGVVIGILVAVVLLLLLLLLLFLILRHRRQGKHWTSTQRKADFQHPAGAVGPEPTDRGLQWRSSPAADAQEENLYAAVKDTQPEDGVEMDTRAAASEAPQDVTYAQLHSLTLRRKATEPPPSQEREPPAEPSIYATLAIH

[2] = target: T1, human LILRB2 expressed on cells …; experiment: flow cytometry on 293T-LILRB2 cells, serial dilution, APC anti-human IgG; fit table under the graph
From the text: (§1) The cells were washed and then subject to flow cytometry to measure levels of fluorescent signals.

[3] = target: T1, human LILRB2 expressed on cells …; experiment: as above; remark: listed apart in the source
From the text: as §1

[4] = target: T1, human LILRB2 expressed on cells …; experiment: as above; remark: listed apart in the source
From the text: as §1

[5] = target: T1, human LILRB2 expressed on cells …; experiment: as above; remark: listed apart in the source
From the text: as §1

[6] = target: T1, human LILRB2 expressed on cells …; experiment: flow cytometry, blockade of His-tagged HLA-G tetramer binding to 293T-LILRB2 cells; fit table under the graph
Description: (§2) Serial diluted humanized LILRB2 antibodies were then added to the mixture and incubated at room temperature for another 45 minutes. The binding of HLA-G/LILRB2 was detected afterwards using a secondary PE-labeled anti-His tag antibody via flow cytometry.

[7] = target: T1, human LILRB2 expressed on cells …; experiment: as above; remark: listed apart in the source
Description: as §2

[8] = target: T1, human LILRB2 expressed on cells …; experiment: as above; remark: listed apart in the source
Description: as §2

[9] = target: T1, human LILRB2 expressed on cells …; experiment: flow cytometry, blockade of His-tagged HLA-A2 tetramer binding to 293T-LILRB2 cells; fit table under the graph
[10] = target: T1, human LILRB2 expressed on cells …; experiment: flow cytometry, blockade of His-tagged HLA-G tetramer binding to 293T-LILRB2 cells; fit table under the graph, row headed EC50
Description: as §2

[11] = target: T1, human LILRB2 expressed on cells …; experiment: flow cytometry, 293T-LILRB2 cells
From the text: The fluorescent signals were detected by flow cytometry.

[12] = target: T2, recombinant human LILRB2 protein (human, UniProt Q8N423 22-460, limits assumed); experiment: ELISA, coated recombinant human LILRB2; design: unit not given here
T2 construct: also called recombinant LILRB2 protein
T2 sequence (Q8N423 22-460 limits assumed): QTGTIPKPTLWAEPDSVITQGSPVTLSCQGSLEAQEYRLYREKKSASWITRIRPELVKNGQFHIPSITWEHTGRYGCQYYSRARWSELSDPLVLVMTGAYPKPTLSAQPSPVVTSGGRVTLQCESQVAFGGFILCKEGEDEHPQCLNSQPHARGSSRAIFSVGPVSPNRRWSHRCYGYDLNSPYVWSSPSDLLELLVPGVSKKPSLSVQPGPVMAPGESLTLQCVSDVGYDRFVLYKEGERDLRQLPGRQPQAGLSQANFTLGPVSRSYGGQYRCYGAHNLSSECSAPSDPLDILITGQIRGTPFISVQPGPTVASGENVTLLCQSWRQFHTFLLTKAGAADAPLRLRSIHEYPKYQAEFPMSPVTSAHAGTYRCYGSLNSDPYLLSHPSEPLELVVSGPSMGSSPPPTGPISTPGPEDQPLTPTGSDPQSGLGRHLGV

[13] = target: T1, human LILRB2 expressed on cells …; experiment: flow cytometry, His-HLA-A2 tetramer (competitor) bound to 293T-LILRB2 cells, relative to no antibody; design: concentration or dose not given beside the values
Description: Serial diluted h#2E1 antibodies were then added to the mixture and incubated at room temperature for another 45 minutes. […]

[14] = target: LILRB2 antigen of the ELISA of Table 5 (format not specified) (UniProt Q8N423 22-460, limits assumed); experiment: ELISA, antibody titration
Chain of LILRB2 antigen of the ELISA of Table 5 (format not specified) (Q8N423 22-460 limits assumed): as above

[15] = target: T3, His-tagged human LILRB2 polypeptide (human, UniProt Q8N423 22-460); experiment: SPR, antibody on CM5 chip, His-LILRB2 analyte, 1:1 model
T3 construct: SPR analyte; also called His-tagged human LILBR2 polypeptide; not shown: His tag
T3 sequence (Q8N423 22-460 limits assumed): as above
Description: Surface plasmon resonance (SPR) was used to examine binding activities of exemplary anti-LILBR2 antibodies disclosed herein. Briefly, the anti-LILBR2 antibody was diluted in a coating buffer to a concentration of 30 μg/ml, loaded onto CM5 chips at 10 μl/min to allow coating of the antibody on the surface of the CM5 chip. […] Binding affinity was measured based on the 1:1 binding model.

[16] = target: T4, human LILRB1 expressed on 293T cells (human, UniProt Q8NHL6 24-650); experiment: cell ELISA on fixed 293T transfectants, antibody 2 µg/ml, OD490
T4 construct: whole, on cells
T4 sequence (Q8NHL6 24-650): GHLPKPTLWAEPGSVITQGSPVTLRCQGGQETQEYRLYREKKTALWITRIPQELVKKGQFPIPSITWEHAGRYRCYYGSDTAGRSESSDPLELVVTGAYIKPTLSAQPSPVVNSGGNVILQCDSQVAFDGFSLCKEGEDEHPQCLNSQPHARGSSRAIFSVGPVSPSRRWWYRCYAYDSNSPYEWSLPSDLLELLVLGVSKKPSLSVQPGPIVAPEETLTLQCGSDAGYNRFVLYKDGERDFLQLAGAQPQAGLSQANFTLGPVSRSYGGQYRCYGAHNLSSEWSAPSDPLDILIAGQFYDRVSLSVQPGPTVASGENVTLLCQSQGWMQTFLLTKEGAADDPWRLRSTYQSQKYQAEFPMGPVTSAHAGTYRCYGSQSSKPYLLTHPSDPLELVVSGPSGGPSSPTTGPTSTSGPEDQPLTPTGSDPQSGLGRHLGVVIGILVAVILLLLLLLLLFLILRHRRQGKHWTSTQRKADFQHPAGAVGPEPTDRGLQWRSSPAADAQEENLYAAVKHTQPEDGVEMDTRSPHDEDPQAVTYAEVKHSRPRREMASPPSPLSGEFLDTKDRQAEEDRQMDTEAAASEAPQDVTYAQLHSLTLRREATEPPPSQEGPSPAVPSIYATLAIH
Description: (§3) The cells were then immobilized with glutaraldehyde in the presence of 5% defatted milk at room temperature for 2 hours. An anti-LILRB2 antibody (2 μg/ml) was added to each well and incubated at room temperature for 2 hours. An HRP-labelled goat anti-mouse secondary antibody was then added into each well and incubated at room temperature for one hour. An HRP substrate, o-phenylenediamine dihydrochloride (OPD) was then added to each well. The plate was incubated at room temperature for 15 min to allow color development and OD₄₉₀ values were determined.

[17] = target: T5, human LILRB3 expressed on 293T cells (human, UniProt O75022 24-631); experiment: as above
T5 construct: whole, on cells
Description: as §3

B1: Antibody h#2E1 (antibody, V domains shown)
VH: EVQLVESGGGLVQPGGSLRLSCAVSGYSITSGYYWNWIRQAPGKGLEWVAYISYDGNNNYNPSLKNRFTISRDTSKNTFYLQMNSLRAEDTAVYYCAREESTMITTAWFAYWGQGTLVTVSS
VL: DIQMTQSPSSLSASVGDRVTITCRASENIYSNLAWYQQKPGKAPKLLIYGATNLASGVPSRFSGSGSGTDYTLTISSLQPEDFATYYCQHFWDTPYTFGQGTKVEIK
notes: Humanized variant of 11B12; detected with anti-human IgG
- IC50 (read off the curve) [1]: ~1 nM
- Kd [2]: 0.364 nM
- Bmax [3]: 556000 RFU
- Kd [3]: 0.162 nM
- Bmax [4]: 647000 RFU
- Kd [4]: 0.446 nM
- Bmax [5]: 618000 RFU
- Kd [5]: 0.377 nM
- Span [6]: 11900 RFU
- IC50 [7]: 0.361 nM
- Span [7]: 8000 RFU
- IC50 [8]: 0.813 nM
- IC50 [9]: 0.787 nM
- EC50 [10]: 0.163 nM

B2: Antibody 2E1_FC11 (antibody, V domains shown)
VH: B1 VH with N58I
VL: B1 VL with T94Y
notes: also called A16
- Bmax [11]: 461000
- Bmax [12]: 1.37
- % no Ab [13]: 50.7%
- IC50 [6]: 0.442 nM
- Span [6]: 8620 RFU
- IC50 [7]: 0.36 nM
- Span [7]: 5700 RFU
- IC50 [8]: 0.472 nM
- IC50 [9]: 0.468 nM

B3: Antibody 10D7 (antibody, V domains shown)
VH: EVKLVESGGGLVKPGGSLKLSCAASGFTFSSYGMSWVRQTPEKRLEWVATISGAFSYTYYPDSVKGRFTISRDNAKNNLYLQMSSLRSEDTAFYYCARHDNSLYYAMDYWGQGTSVTVSS
VL: NVQITQSPSYLAASPGETITINCRTSKSITKYLAWYQEQPGKTNKLLIYSGSTLQSGIPSRFSGSGSGTDFTLTISSLEPEDFAMYYCQQHNEYPWTFGGGTKLEIK
notes: Mouse hybridoma mAb purified from ascites
- Kd [14]: 0.705 nM
- Kd [15]: 0.317 nM
- koff [15]: 0.000107 s⁻¹
- kon [15]: 338000 M⁻¹ s⁻¹
- binding result [16]: binds
- binding result [17]: binds
